Target: human GLP-1 receptor (human, UniProt P43220 24-463)
Assay: cell-based or functional assay

in vitro GLP-1 activity (intracellular cAMP, EC50 compared)	Binder
2 to 3 times lower activity than the dual function proteins with other GLP-1 mutant sequences	DFD23 (Fc fusion) HGEGTFTSDVSSYLEGQAAKEFIAWLVKGRGEKEKEEQEERETKTPECPSHTQPLGVFLFPPKPKDTLMISRTPEVTCVVVDVSQEDPEVQFNWYVDGVEVHNAKTKPREEQFNSTYRVVSVLTVLHQDWLNGKEYKCKVSNKGLPSSIEKTISKAKGQPREPQVYTLPPSQEEMTKNQVSLTCLVKGFYPSDIAVEWESNGQPENNYKTTPPVLDSDGSFFLYSRLTVDKSRWQEGNVFSCSVMHEALHNHYTQKSLSLSLGKGGGGSGGGGSGGGGSHPIPDSSPLLQFGGQVRQRYLYTDDAQQTEAHLEIREDGTVGGAADQSPESLLQLKALKPGVIQILGVKTSRFLCQRPDGALYGSLHFDPEACSFREEIRPDGYNVYQSEAHGLPLHLPGNKSPHRDPAPRGPARFLPLPGLPPALPEPPGILAPQPPDVGSSDPLSMVTGLEAVRSPSYAS
~2 times higher activity than the dual function proteins DFD69, DFD112 and DFD114	DFD59: GLP1(GEG)-HyFc40 (Fc fusion) HGEGTFTSDVSSYLEEQAAKEFIAWLVKGGGEKEKEEQEERETKTPECPSHTQPLGVFLFPPKPKDTLMISRTPEVTCVVVDVSQEDPEVQFNWYVDGVEVHNAKTKPREEQFNSTYRVVSVLTVLHQDWLNGKEYKCKVSNKGLPSSIEKTISKAKGQPREPQVYTLPPSQEEMTKNQVSLTCLVKGFYPSDIAVEWESNGQPENNYKTTPPVLDSDGSFFLYSRLTVDKSRWQEGNVFSCSVMHEALHNHYTQKSLSLSLGK

From patent US20250270269A1 (YUHAN, published 2025)
